Experimental findings from US20120021999A1 (published 2012) are described below.

Test [1] addresses T1, PP2Ac from IL-2-stimulated TS1αβ cellular extracts (mouse, UniProt P63330 1-309).
T1 construct: Endogenous protein in a cell lysate, detected by immunoblot with anti-PP2Ac antibody
The experiment in a line: pull-down of biotinylated peptide on streptavidin beads from TS1αβ cell extracts, anti-PP2Ac immunoblot. As for the experimental part:
Control streptavidin-sepharose alone or conjugated to DPT-C9, DPT-C9r, DPT-sh1 or C9 peptides were incubated with IL-2-stimulated cellular extracts form TS1αβ cells (10⁷ cells/point). Identification of unbound proteins in lysates or bound proteins in pull-down experiments was performed by immunoblotting using antibodies against PP2Ac or PP1c.
Biotinylated peptides were preincubated 2 h at 0-100 μM (in final concentration with lysate) at room temperature with 30 μl of streptavidin-coated immunomagnetic beads (Calbiochem, San Diego Calif.). During this time, 10⁷ exponentially growing TS1αβ cells were first washed twice with PBS and then lysed 10 minutes on ice in 400 μl of lysis buffer (50 mM Tris pH7.4, 150 mM NaCl, 20% glycerol, 1% NP-40, 10 mM EDTA, 1 mM PhenylMethylSulfonyl Fluoride, 10 mM NaF, 1 mM orthovanadate, “complete, EDTA-free” protease inhibitor cocktail from Roche).
Lysates were clarified at 13000 g for 10 minutes at 4° C. and were incubated with biotinylated peptides associated with the streptavidin-coated immunomagnetic beads 2 h at 4° C. Biotinylated peptides were pulled down with streptavidin beads and washed two times in 700 μl of lysis buffer on ice. Bound proteins and unbound lysates were then analyzed by SDS-PAGE and Western Blotting using PP1c or PP2Ac antibodies.

Test [2] deals with T2, caspase-9 from IL-2-stimulated TS1αβ cellular extracts (mouse, UniProt Q8C3Q9 1-454, limits assumed).
T2 construct: Endogenous protein in a cell lysate
T2 sequence (looked up): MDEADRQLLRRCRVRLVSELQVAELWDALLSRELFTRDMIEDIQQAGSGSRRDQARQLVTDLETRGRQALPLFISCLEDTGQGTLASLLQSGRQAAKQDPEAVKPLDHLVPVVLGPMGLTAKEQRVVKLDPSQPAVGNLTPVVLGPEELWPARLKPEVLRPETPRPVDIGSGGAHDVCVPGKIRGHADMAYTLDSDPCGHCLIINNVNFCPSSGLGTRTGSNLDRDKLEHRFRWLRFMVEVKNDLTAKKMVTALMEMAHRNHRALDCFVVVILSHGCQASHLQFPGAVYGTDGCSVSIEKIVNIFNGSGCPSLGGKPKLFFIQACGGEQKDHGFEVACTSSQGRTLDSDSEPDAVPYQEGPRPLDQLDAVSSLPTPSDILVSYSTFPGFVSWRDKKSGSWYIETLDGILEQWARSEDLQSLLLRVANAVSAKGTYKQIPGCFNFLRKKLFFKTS
The experiment in a line: pull-down of biotinylated peptide on streptavidin beads from TS1αβ cell extracts, immunoblot. A general note: A western blot detects proteins with antibodies after separation by electrophoresis.

Ends that are not written are not given here. * marks the point of attachment. Biotin = O=C1N[C@H]2[C@H](CS[C@H]2CCCCC(=O)*)N1

T1 sequence (P63330 whole entry): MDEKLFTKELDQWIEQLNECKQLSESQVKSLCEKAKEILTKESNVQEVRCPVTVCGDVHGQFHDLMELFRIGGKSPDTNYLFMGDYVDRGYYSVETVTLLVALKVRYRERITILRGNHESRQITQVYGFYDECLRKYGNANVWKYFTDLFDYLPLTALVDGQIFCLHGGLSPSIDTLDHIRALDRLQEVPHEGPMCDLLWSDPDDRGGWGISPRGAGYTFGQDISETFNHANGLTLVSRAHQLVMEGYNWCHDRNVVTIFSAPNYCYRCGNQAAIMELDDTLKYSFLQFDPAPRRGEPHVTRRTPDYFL

B1: DPT-C9r (peptide)
peptide: Biotin-VKKKKIKREIKILDESRAWQELIGDLTEIY
notes: Biotinylated, held on streptavidin beads in the pull-down
With B1, the binding result in test [1] is reported as “no binding”.

B2: DPT-sh1 (peptide)
peptide: Biotin-VKKKKIKREIKI
notes: Penetrating shuttle peptide; origin printed as CK2alpha (human); Biotinylated, held on streptavidin beads in the pull-down; also called shuttle
Regarding B2, the binding result in test [1] is given as “no binding”.

B3: C9 (peptide)
peptide: Biotin-YIETLDGILEQWARSEDL
notes: Synthetic NH2-biotinylated peptide, held on streptavidin beads in the pull-down
Turning to B3, the binding result in test [2] is on record as “no binding”.

B4: DPT-C9 (peptide)
peptide: Biotin-VKKKKIKREIKIYIETLDGILEQWARSEDL
notes: as for B1
On to B4, for which the binding result in test [2] is recorded as “no binding”.
